Numbering of substitutions follows the chain as printed.

First the molecules themselves.
B1: H4H12889P (antibody, human IgG4 S228P, kappa, V domains shown)
VH: EVQLVESGGGLVQPGGSLRLSCAASGFIFSSYEMHWVRQAPGKGLEWISYISSSGTTIYYADSVKGRFTISRDNAKNSLYLHMNSLRAEDTAVYYCTRARITGTFDVFDIWGQGTMVTVSS
VL: DIQMTQSPSSLSASVGDRVTITCRASQSISSYLNWYQQKPGKAPKLLIFAASNLQSGVPSRFSGSRSGTDFTLTISSLQPEDFATYYCQQNYNIPYTFGQGTKLEIKR
notes: anti-IL2Rγ monoclonal antibody expressed with human IgG4 Fc; also called REGN7257
B2: H4H12890P (antibody, human IgG4 S228P, kappa, V domains shown)
VH: EVQLVESGGGLVQPGGSLRLSCAASGFTFNNYAMHWVRQAPGKGLEYVSSISSSGGSTYYEDSVKGRFTISRDNSKNTLYLQMGSLRAEDMAVYYCARSFYGSGTYYDTFDMWGQGTMVTVSS
VL: B1 VL with V15I, S31R, F49Y, N53S, G64A, R66G, N91S, N93S, I94T, Y96F
notes: anti-IL2Rγ monoclonal antibody expressed with human IgG4 Fc
B3: H4H12899P (antibody, human IgG4 S228P, kappa, V domains shown)
VH: QVQLVESGGDLVKPGGSLRLSCATSGFTFSDFYMTWIRQAPGKGLEWISYISNSGSIVKYADSVKGRFTISRDNAKNSLYLQMNSLRAEDTAIYYCARFYGDRWGQGTLVTVSS
VL: DIQLTQSPSFLSASVGDRVTITCWASQGISTFLAWYQQKPGKAPKLLIYAASTLQSGVPSRFSGSGSGTDFTLTISSLQPEDFATYHCQQLNNYPWTFGQGTKVEIKR
notes: as for B2

In the first assay the target is T1, Human IL2Rγ extracellular domain expressed with a C-terminal myc-myc-hexahistidine tag (human).
T1 construct: also called hIL-2Rg-MMH; hIL-2RG-MMH
T1 chain: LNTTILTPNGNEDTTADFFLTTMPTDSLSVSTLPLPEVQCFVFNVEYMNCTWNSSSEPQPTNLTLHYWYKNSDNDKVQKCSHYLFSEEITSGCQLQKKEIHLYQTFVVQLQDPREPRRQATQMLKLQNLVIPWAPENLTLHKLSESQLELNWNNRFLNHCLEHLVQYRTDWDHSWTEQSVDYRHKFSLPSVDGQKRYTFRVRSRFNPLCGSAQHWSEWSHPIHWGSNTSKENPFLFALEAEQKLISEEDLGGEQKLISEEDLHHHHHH
Briefly: SPR Biacore 4000, mAb captured by anti-hFc, HBS-ET, 25C. In short, it runs like this:
(§1)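 First, a mouse anti-human Fc antibody was amine-coupled to the chip; test mAbs were then captured and IL2Rγ reagents bound in HBS-ET, pH 7.4. Dissociation was tracked for 8-10 minutes before 1:1 fitting of the sensorgrams.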
(SPR reads the build-up and loss of mass on a sensor chip optically.)
In the case of B1, the “100 nM Ag Bound” value is 64 RU, the Kd (usually the equilibrium constant for the complex coming apart) was determined as 1.41 nM, the koff (commonly the first-order rate constant of dissociation) was 0.00042 s⁻¹ and the kon (usually the second-order rate constant of association) came to 298000 M⁻¹ s⁻¹. The t1/2 came to 28 min.

For the molecule B2, the “100 nM Ag Bound” value was determined as 48 RU, the Kd amounted to 4.91 nM, the koff came to 0.000333 s⁻¹ and the kon worked out at 67900 M⁻¹ s⁻¹. The molecule further showed a t1/2 of 35 min.

For the molecule B3, the “100 nM Ag Bound” value worked out at 61 RU, binding was put at a Kd of 2.51 nM, the dissociation rate constant (koff) is 0.000458 s⁻¹ and the kon was found to be 182000 M⁻¹ s⁻¹. Moreover, the t1/2 turned out to be 25 min.

A further assay has as its target T2, Macaca fascicularis IL2Rγ extracellular domain expressed with a C-terminal myc-myc-hexahistidine tag (Macaca fascicularis).
T2 construct: also called mfIL-2Rg-MMH; mfIL-2RG-MMH
T2 chain: T1 chain with T14A, A16T, T22S, H141R, T228S
The assay is described as above. Summed up:
as §1
As to B1, the “100 nM Ag Bound” value worked out at 59 RU, the Kd worked out at 1.74 nM, the koff stood at 0.000404 s⁻¹ and the kon is 233000 M⁻¹ s⁻¹. The same molecule registered a t1/2 of 29 min.

Regarding B2, the “100 nM Ag Bound” value was 37 RU, binding was characterised by a dissociation constant (Kd) of 5.16 nM, the koff came out at 0.000313 s⁻¹ and the kon came out at 60600 M⁻¹ s⁻¹. This molecule showed a t1/2 of 37 min.

As to B3, the “100 nM Ag Bound” value was 54 RU, binding was put at a Kd of 4.01 nM, the koff is 0.000407 s⁻¹ and the kon came out at 102000 M⁻¹ s⁻¹. The same molecule yielded a t1/2 of 28 min.

The next assay addresses T2, Macaca fascicularis IL2Rγ extracellular …. Briefly: SPR Biacore 4000, mAb captured by anti-hFc, 37C, dissociation in PBS-T pH 7.4. In short, it runs like this: (§2)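 Biacore 4000 SPR; anti-IL2Rγ mAbs (human IgG4 Fc) captured on anti-human Fc CM5 surface, IL2Rγ-MMH flowed over. Dissociation followed 6 min in PBS-T pH 7.4 or pH 6.0 at 25° C or 37° C; kd from 1:1 model fit of sensorgrams.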
On to B1, for which the “100 nM Ag Bound (RU)” value worked out at 147 RU, the koff came out at 0.000578 s⁻¹ and the t1/2 is 20 min.

In the case of B2, the “100 nM Ag Bound (RU)” value was 82 RU, the koff came out at 0.000624 s⁻¹ and the t1/2 came out at 19 min.

B3: the “100 nM Ag Bound (RU)” value stood at 160 RU, the koff was found to be 0.000552 s⁻¹ and the t1/2 was found to be 21 min.

In the next assay the target is T1, Human IL2Rγ extracellular domain …. Put plainly: SPR Biacore 4000, mAb captured by anti-hFc, HBS-ET, 37C. Summed up:
as §1
On to B1, for which the “100 nM Ag Bound” value was 32 RU, binding was characterised by a dissociation constant (Kd) of 3.99 nM, the koff is 0.00185 s⁻¹ and the kon was 465000 M⁻¹ s⁻¹. The molecule further gave a t1/2 of 6 min.

Turning to B2, the “100 nM Ag Bound” value stood at 27 RU, the Kd was determined as 14 nM, the koff was found to be 0.00133 s⁻¹ and the kon came out at 95100 M⁻¹ s⁻¹. This molecule also displayed a t1/2 of 9 min.

For the molecule B3, the “100 nM Ag Bound” value is 36 RU, the Kd was 7.27 nM, the koff stood at 0.00249 s⁻¹ and the kon worked out at 342000 M⁻¹ s⁻¹. Further, the t1/2 worked out at 5 min.

Another assay addresses T2, Macaca fascicularis IL2Rγ extracellular …. Put plainly: SPR Biacore 4000, mAb captured by anti-hFc, 37C, dissociation in PBS-T pH 6.0. Summed up: as §2
As for B1, the “100 nM Ag Bound (RU)” value stood at 148 RU, the koff stood at 0.00183 s⁻¹ and the t1/2 was 6 min.

Turning to B2, the “100 nM Ag Bound (RU)” value stood at 71 RU, the koff stood at 0.00276 s⁻¹ and the t1/2 was 4 min.

Regarding B3, the “100 nM Ag Bound (RU)” value came to 122 RU, the koff is 0.00211 s⁻¹ and the t1/2 was determined as 5 min.
